Measurements as given in article PMC4876375.

Molecular target: chimeric mouse h-ferritin-M6A (recombinant) (mouse | not stated)
Assay: SEC; HiLoad 26/60 Superdex 200; 20 mM Tris-HCl pH 8, 200 mM KCl, 10% glycerol, 2 mM TCEP; elution volume compared with horse spleen ferritin (~440 kDa)

Question: With “chimeric mouse h-ferritin-M6A (recombinant)” as the substance, how does the stoichiometry N read?
Answer: The stoichiometry N was 24.
